We go through three molecules from patent US20090253630A1 (Eli Lilly, published 2009).

Groups on a side chain read outwards from the residue. No end group written: not given here. CO‑CH2 = CO-CH2 linker joining mPEG to the Lys side chain

Assay [1] concerns the target PTHR-emGFP expressed in transfected HEK 293 cells. Kind of assay: cell-based or functional assay.
The target of assay [2] is T1, PTH receptor (PTHR1) on SaOS-2 osteosarcoma cells (UniProt Q03431 27-593, limits assumed).
T1 sequence (looked up): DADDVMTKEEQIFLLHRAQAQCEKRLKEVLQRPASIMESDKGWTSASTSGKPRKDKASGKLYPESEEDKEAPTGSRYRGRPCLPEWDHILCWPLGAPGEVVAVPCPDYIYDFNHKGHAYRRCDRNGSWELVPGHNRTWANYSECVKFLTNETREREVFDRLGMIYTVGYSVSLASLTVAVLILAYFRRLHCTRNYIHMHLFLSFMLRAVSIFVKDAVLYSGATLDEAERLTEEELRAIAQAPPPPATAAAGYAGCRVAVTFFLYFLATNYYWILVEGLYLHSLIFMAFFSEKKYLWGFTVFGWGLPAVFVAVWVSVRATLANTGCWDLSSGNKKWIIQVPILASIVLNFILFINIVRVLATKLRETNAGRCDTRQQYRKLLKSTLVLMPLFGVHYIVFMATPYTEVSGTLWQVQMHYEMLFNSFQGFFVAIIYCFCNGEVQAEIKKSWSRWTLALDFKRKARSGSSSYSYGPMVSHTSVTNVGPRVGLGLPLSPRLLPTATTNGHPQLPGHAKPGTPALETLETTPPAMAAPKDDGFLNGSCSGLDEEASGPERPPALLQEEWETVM
Nature of the assay: cell-based or functional assay.

B1: SEQ ID NO: 1 but unpegylated and Lysine at amino acid 26 (peptide)
peptide: SVSEIQLMHNLGRHLASMERVEWLRKLLQDVHNF
modifications: not fully specified (C-terminus)
For the molecule B1, in assay [1], the “PTHR1 internalization at 20 min, 100 nM compound, percent of vehicle only control (baseline=100%)” value is 106 % of vehicle only control; the “PTHR1 internalization at 40 min, 100 nM compound, percent of vehicle only control (baseline=100%)” value is 126 % of vehicle only control; the “PTHR1 internalization at 60 min, 100 nM compound, percent of vehicle only control (baseline=100%)” value is 113 % of vehicle only control; the “PTHR1 internalization at 180 min, 100 nM compound, percent of vehicle only control (baseline=100%)” value was 142 % of vehicle only control.

B2: SEQ ID NO: 1 with 5 kD mPEG (peptide)
peptide: SVSEIQLMHNLGRHLASMERVEWLRK([CO‑CH2-mPEG 5 kD])LLQDVHNF-NH2
modifications: also: trifluoroacetate salt
In the case of B2, in assay [1], the “PTHR1 internalization at 20 min, 100 nM compound, percent of vehicle only control (baseline=100%)” value is 127 % of vehicle only control; the “PTHR1 internalization at 40 min, 100 nM compound, percent of vehicle only control (baseline=100%)” value is 93 % of vehicle only control; the “PTHR1 internalization at 60 min, 100 nM compound, percent of vehicle only control (baseline=100%)” value is 91 % of vehicle only control; the “PTHR1 internalization at 180 min, 100 nM compound, percent of vehicle only control (baseline=100%)” value is 92 % of vehicle only control.

B3: SEQ ID NO: 1 with 2 kD mPEG (peptide)
peptide: SVSEIQLMHNLGRHLASMERVEWLRK([CO‑CH2-mPEG 2 kD])LLQDVHNF-NH2
modifications: also: trifluoroacetate salt
B3: the “Average EC50 (nM) (n = 2), cAMP induction in SaOS-2 cells (HTRF)” value in assay [2] was 7.7 nM. For the same molecule, in assay [1], the “PTHR1 internalization at 20 min, 100 nM compound, percent of vehicle only control (baseline=100%)” value was 160 % of vehicle only control; the “PTHR1 internalization at 40 min, 100 nM compound, percent of vehicle only control (baseline=100%)” value was 120 % of vehicle only control; the “PTHR1 internalization at 60 min, 100 nM compound, percent of vehicle only control (baseline=100%)” value is 104 % of vehicle only control; the “PTHR1 internalization at 180 min, 100 nM compound, percent of vehicle only control (baseline=100%)” value is 102 % of vehicle only control.
